For assay [1], the target named is T1, human hepcidin (mature, 25 amino acids) (human, mono-biotinylated in the ELISAs and on the KinExA beads (site not stated); unlabelled in solution and on the BIAcore chip).
T1 construct: the form is named in each assay field; also called rhuHepc; rhHepc
T1 peptide: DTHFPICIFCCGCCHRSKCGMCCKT
The experiment in a line: antibody at 1:250 dilution; KinExA / BIAcore named in the paragraph. In general terms: In KinExA the mixture passes briefly over coated beads that capture the unbound partner.

Assay [2] concerns the target T1, human hepcidin (mature, 25 amino acids). The experiment in a line: KinExA solution equilibrium, human hepcidin-coated beads. As to the method: SA-Sepharose beads were pre-coated with biotinylated human hepcidin (SEQ ID NO: 9) and blocked with BSA according to manufacturer's instructions. Antibodies and hepcidin were diluted in PBS/0.1% BSA/0.05% NaN₃ buffer. Fixed concentrations of antibodies 15E1, 15E1 W52H, 15E1 A99H, 15E1 N521-1, 15E1 A107H and 18B11 were incubated with various concentrations of human hepcidin at room temperature for 8 hours before being run through the human hepcidin-coated beads. The amount of the bead-bound antibody was quantified by fluorescently (Cy5)-labeled goat anti-murine-IgG (H+L) antibody (Jackson Immuno Research, West Grove, Pa.). The binding signal is proportional to the concentration of free antibody at equilibrium. Dissociation equilibrium constant (KD) was obtained from nonlinear regression of the competition curves using a dual-curve one-site homogeneous binding model (KinExATM Pro software).

For assay [3] the target is unchanged. Briefly: ELISA, mono-biotinylated human hepcidin on Neutravidin plate, pH 7.4. As to the method: (§1) Differential pH binding of the antibodies listed above in Table 3 was then determined by ELISA. 50 μL of Neutravidin (Pierce) at 8 μg/mL in 1×PBS was coated upon a Nunc Maxisorp 384-well plate, and incubated at 37° C. for 1 hr. After blocking the wells with 0.1% BSA/PBS/0.05% Tween20 for 1 hour at room temperature, plates were washed six times with PBS/0.05% Tween20. 25 μL of mono-biotinylated hepcidin at 50 ng/mL in 0.1% BSA/PBS/0.05% Tween20 was added to the 384-well plate, and incubated at room temperature for 1 hour. The plates were next washed six times with PBS/0.05% Tween20. Starting hepcidin antibody concentrations were normalized to 1 μg/mL for pH 5.5 and 6.0 conditions and to 100 ng/mL for pH 7.4 conditions. The hepcidin antibodies were serially diluted 3-fold in PBS/1% NFDM pH 7.4 and 4-fold in PBS/1% NFDM pH 6.0 and 5.5. The dilutions and titrations were performed in polypropylene 96-well dilution plates, and then were transferred in duplicate to a Neutravidin-coated 384-well plate. The biotinylated hepcidin and antibodies were incubated for 2 hours at room temperature. The plate was next washed six times with PBS/0.05% Tween20. 25 μL it of goat anti-huIgG-horseradish peroxidase at a 1:7000 dilution in 0.1% BSA/PBS/0.05% Tween20 was next added to each well of the assay plate. The plate was finally washed six times in PBS/0.05% Tween20. Enhanced K-Blue 3,3′,5,5′-Tetramethylbenzidine (TMB) Substrate (Neogen) was added and the reaction stopped using 1 M H₃PO₄ after 10 minutes of incubation at room temperature. The absorption was measured at 450 nm on a plate reader. Binding data were analyzed by non-linear regression analysis (sigmoidal dose-response, variable slope) to generate EC₅₀ values using GraphPad Prism® software. […] Double combinations of these mutants were made.
Background: ELISA stands for enzyme-linked immunosorbent assay.

Assay [4] shares this target. Briefly: ELISA, mono-biotinylated human hepcidin on Neutravidin plate, pH 5.5. As to the method: as §1
Assay [5] shares this target. The experiment in a line: ELISA, mono-biotinylated human hepcidin on Neutravidin plate, pH 6.0. As for the experimental part: as §1
For assay [6] the target is unchanged. The experiment in a line: ELISA, mono-biotinylated human hepcidin on Neutravidin plate, pH 6.0 against pH 7.4. As to the method:
as §1

These results are taken from patent US20110150888A1 (Amgen, published 2011).

The Kd is the constant that tells how readily two partners part at equilibrium. In general, EC50 refers to the midpoint of the concentration-response curve.

Positions count from the first letter of the chain named. Names and notes keep the numbering of the source.

B1: antibody 19B8 (antibody, V domains shown)
VH: QVHLQQWGAGPLKPSETLSLTCAVYNGSFSGYYWSWIRQPPGKGLDWIGDINHSGNTKYNPSLKSRVTISVDTAKNQFSLKLSSVTAADTAVYYCARGDFWSGFDWFDPWGQGTLVTVSS
VL: QSALTQPASVSGSPGQSITISCTGTSSNVGTYKLVSWYQQHPGKAPKLMISEVSKRPSGLSNRFSGSKSGNTASLTISGLQAEDEADYYCSSYAGDSTLVFGGGTKLTVL
notes: Human antibody from Xenomouse IgG2 or IgG4 mice
On to B1, for which the “fold reduction in affinity at pH 6 compared to pH 7.4” value (shortened to “fold reduction in affinity”) in assay [1] was around 10 fold.

B2: antibody 22F12 (antibody, V domains shown)
VH: B1 VH with H3Q, N26G, D46E, A74S, Q77H
VL: B1 VL with T31S, K33N, Q40K, S91C, D96S
notes: as for B1
With B2, the “fold reduction in affinity” value in assay [1] was around 10 fold.

B3: antibody 20E12 (antibody, V domains shown)
VH: B1 VH with H3Q, N26G, D46E, A74S, S83N
VL: B1 VL with T31S, K33N, I50L, N62S, N71D, S91C, D96S
notes: as for B1
For the molecule B3, the “fold reduction in affinity” value in assay [1] was around 10 fold.

B4: antibody 23A11 (antibody, V domains shown)
VH: B1 VH with D46E, S83N
VL: B1 VL with V100I, F101V
notes: as for B1
As to B4, the “fold reduction in affinity” value in assay [1] is around 10 fold.

B5: antibody 22H10 (antibody, V domains shown)
VH: B1 VH with D46E
VL: B1 VL with G43D, M49I, A86V
notes: as for B1
Consider B5, for which the “fold reduction in affinity” value in assay [1] was around 10 fold.

B6: antibody 15E1 (wild type) (antibody, V domains shown)
VH: QVQLVESGGGVVQPGRSLRLSCAASGFTFSSYGMHWVRQAPGKGLEWVAVIWYAESNKYYADSVKGRFTISRDNSKNTLYLQMNSLRAEDTAVYYCARAQEGIAPDAFDIWGQGTMVTVSS
VL: SYELTQPPSVSVSPGQTATITCSGDKLGERYACWYQQRPGQSPVLVIYQDSKRPSGIPERFSGSNSGNTATLTISGTQAMDEADYFCQAWYSSTNVLFGGGTKLTVL
notes: Human antibody
On to B6, for which the Kd in assay [2] was 0.037 nM. Further, the concentration giving a half-maximal response (EC50) in assay [3], in assay [4] and in assay [5] was 2.3 ng/mL in each case.

B7: 15E1 A107H L27H (antibody, V domains shown)
VH: B6 VH with A107H
VL: B6 VL with L27H
notes: Double histidine mutant of 15E1 (one change in each chain); constant regions as in wild-type 15E1; also called A107H (heavy chain)/L27H (light chain)
With B7, the figures for the EC50 in assay [3], in assay [4] and in assay [5] were 4.3 ng/mL, 316 ng/mL and 19.3 ng/mL, respectively. Also, in assay [6], the “fold increase in EC50 as the pH was lowered to 6.0” value was at least 5.5 fold.

B8: 15E1 N57H A107H (antibody, V domains shown)
VH: B6 VH with N57H, A107H
VL: B6 VL
notes: Double histidine mutant of 15E1; constant regions as in wild-type 15E1; also called A107H (heavy chain)/N57H (heavy chain)
For B8, the EC50 in assay [3] amounted to 7.3 ng/mL; in assay [5], 75.6 ng/mL. The “fold increase in EC50 as the pH was lowered to 6.0” value in assay [6] was at least 5.5 fold.

B9: 15E1 W52H (antibody, V domains shown)
VH: B6 VH with W52H
VL: B6 VL
notes: Histidine mutant of 15E1, transiently expressed in 293-6E cells; constant regions as in wild-type 15E1; also called W52H (heavy chain)
Take B9: the EC50 was determined as 4.5 ng/mL in assay [3], 17 ng/mL in assay [4] and 5.8 ng/mL in assay [5]. In assay [6], the “fold increase in EC50 as the pH was lowered to 6.0” value was at least 1.5 fold.

B10: 15E1 A107H (antibody, V domains shown)
VH: B6 VH with A107H
VL: B6 VL
notes: Histidine mutant of 15E1, transiently expressed in 293-6E cells; constant regions as in wild-type 15E1; also called A107H (heavy chain)
Regarding B10, the Kd in assay [2] is 0.031 nM. The concentration giving a half-maximal response (EC50) in assay [3] came to 2 ng/mL; in assay [4], 3.7 ng/mL; in assay [5] it was 3.6 ng/mL. In addition, the “fold increase in EC50 as the pH was lowered to 6.0” value in assay [6] is at least 1.5 fold.

B11: 15E1 L27H (antibody, V domains shown)
VH: B6 VH
VL: B6 VL with L27H
notes: Histidine mutant of 15E1, transiently expressed in 293-6E cells; constant regions as in wild-type 15E1; also called L27H (light chain)
For the molecule B11, the EC50 in assay [3] was determined as 4.5 ng/mL; in assay [4] it was 8 ng/mL; in assay [5] it was 6.5 ng/mL. The “fold increase in EC50 as the pH was lowered to 6.0” value in assay [6] was at least 1.5 fold.

B12: 15E1 N57H (antibody, V domains shown)
VH: B6 VH with N57H
VL: B6 VL
notes: Histidine mutant of 15E1, transiently expressed in 293-6E cells; constant regions as in wild-type 15E1; also called N57H (heavy chain)
In the case of B12, the Kd in assay [2] was 3 nM. Besides, the EC50 worked out at 1.8 ng/mL in assay [3], 3.2 ng/mL in assay [4] and 4 ng/mL in assay [5]. Further, in assay [6], the “fold increase in EC50 as the pH was lowered to 6.0” value is at least 1.5 fold.

B13: 15E1 A107H A89H (antibody, V domains shown)
VH: B6 VH with A107H
VL: B6 VL with A89H
notes: Double histidine mutant of 15E1 (one change in each chain); constant regions as in wild-type 15E1; also called A107H (heavy chain)/A89H (light chain)
Consider B13, for which the figures for the EC50 in assay [3] and in assay [5] were 6 ng/mL and 34.7 ng/mL, respectively. Besides, the “fold increase in EC50 as the pH was lowered to 6.0” value in assay [6] is at least 5.5 fold.

B14: 15E1 A99H (antibody, V domains shown)
VH: B6 VH with A99H
VL: B6 VL
notes: Histidine mutant of 15E1, transiently expressed in 293-6E cells; constant regions as in wild-type 15E1; also called A99H (heavy chain)
Take B14: in assay [2], the Kd is above 10 nM. In addition, the EC50 in assay [3] worked out at 4.1 ng/mL; in assay [4], 29.1 ng/mL; in assay [5], 10.7 ng/mL. For the same molecule, the “fold increase in EC50 as the pH was lowered to 6.0” value in assay [6] was at least 1.5 fold.

B15: 15E1 A89H (antibody, V domains shown)
VH: B6 VH
VL: B6 VL with A89H
notes: Histidine mutant of 15E1, transiently expressed in 293-6E cells; constant regions as in wild-type 15E1; also called A89H (light chain)
With B15, the EC50 in assay [3] was 5.4 ng/mL; in assay [4], 12 ng/mL; in assay [5], 10.6 ng/mL. The “fold increase in EC50 as the pH was lowered to 6.0” value in assay [6] was at least 1.5 fold.

B16: 15E1 A99H A107H (antibody, V domains shown)
VH: B6 VH with A99H, A107H
VL: B6 VL
notes: Double histidine mutant of 15E1; constant regions as in wild-type 15E1; also called A107H (heavy chain)/A99H (heavy chain)
Consider B16, for which the concentration giving a half-maximal response (EC50) in assay [3] stood at 3 ng/mL; in assay [4], 16.1 ng/mL; in assay [5], 5.5 ng/mL. In addition, the “fold increase in EC50 as the pH was lowered to 6.0” value in assay [6] was at least 5.5 fold.

B17: antibody 24E4 (antibody, V domains shown)
VH: QVQLVQSGAEVKEPGASVKVSCKASGYTFTSYGVSWVRQAPGQGLEWMGWISAYNGNTLYAQHLLGRVTMTTDTSTSTAYMELRSLRSDDTAVYYCAREDLGMGDYWGQGTLVTVSS
VL: QSVLTQPPSVSGAPGQRVTISCTGSSSNIGAGYGVYWYQQLPGTAPKLLIYGHNNRPSGVPDRFSGSKSDTSASLAITGLQAEDEADYYCQSYDSNLIGSVFGTGTKVTVL
notes: as for B1
Turning to B17, the “fold reduction in affinity” value in assay [1] was around 10 fold.
